Measurements as given in patent publication US20210000940A1.
Where two headings read alike, the source gives them in different places.

Legend:
[1] = target: Andes virus glycoprotein Gc, wild type (Andes orthohantavirus CHI-7913) (UniProt Q9E006)
[2] = target: Andes virus glycoprotein Gc, wild type (Andes orthohantavirus CHI-7913) (UniProt Q9E006); remark: listed apart in the source

“Andes virus glycoprotein Gn, wild type (from UniProt Q9E006 19-651)” showed a melting temperature (Tm) of temperature-induced Gn/Gc dissociation [1] of 37.7 °C and a melting temperature (Tm) of temperature-induced Gn/Gc dissociation [2] of 36.3 °C.
